Among the data in paper PMC3961392 are Kd values, retold here.

pKd: −log10 of the molar value.

One data set has as its target A3G (Homo sapiens?) (UniProt Q9HC16). Kind of data set: fluorescence anisotropy. The conditions noted are these: RT buffer: 50 mM Tris pH 7.4, 40 mM KCl, 10 mM MgCl2, 1 mM DTT; 10 nM F-labeled DNA; 21 C. A general note: Polarisation of emitted light reports the rotation of a fluorescent probe.
For another data set, the target named is A3G NPM ins194_195NPM (UniProt Q9HC16). Kind of data set: fluorescence anisotropy. The conditions noted are these: RT buffer: 50 mM Tris pH 7.4, 40 mM KCl, 10 mM MgCl2, 1 mM DTT; 10 nM F-labeled DNA; 21 C.
Chain of A3G NPM ins194_195NPM (Q9HC16 whole entry): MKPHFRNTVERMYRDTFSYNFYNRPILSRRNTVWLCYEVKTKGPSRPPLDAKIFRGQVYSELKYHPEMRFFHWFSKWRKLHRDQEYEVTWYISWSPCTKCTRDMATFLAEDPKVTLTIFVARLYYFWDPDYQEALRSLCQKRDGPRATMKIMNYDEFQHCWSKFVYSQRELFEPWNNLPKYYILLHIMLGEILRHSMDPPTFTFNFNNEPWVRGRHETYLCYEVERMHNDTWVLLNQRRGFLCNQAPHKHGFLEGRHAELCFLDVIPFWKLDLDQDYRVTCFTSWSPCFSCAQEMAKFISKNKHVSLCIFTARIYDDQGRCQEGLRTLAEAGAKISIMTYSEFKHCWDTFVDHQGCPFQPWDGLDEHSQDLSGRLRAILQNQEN

Chain of A3G (Homo sapiens?) (Q9HC16 whole entry): as above

One may read the pKd as the Kd on a negative log10 scale, so that one unit is a factor of ten. The low end stands for a large Kd, the high end for a small Kd. As to “GAATATATGTTGAGACCCAAAGTAATGAGAGATTGATTAGATGAGTGTAATGTGATATATGTGTATGAAAGATATAAGACCCAAAGAGTAAAGTTGTTAATGTGTGTAGATATGTTAA [A3G - 63 (118 nt, CCC)]”, the pKd in the data set with A3G is 6.89; with A3G NPM ins194_195NPM, 7.25.
